Experimental data taken from article PMC5500810 (2017).

What was measured:
[1] = target: T1, mouse EphA4-Fc (R&D Systems) (mouse, UniProt Q03137 20-547); assay: SPR
[2] = target: T2, human EphA4-Fc (R&D Systems) (human, UniProt P54764 20-547); assay: SPR
[3] = target: T3, EphA4 ligand-binding domain (human, amino acids 22-203) (human, UniProt P54764 22-203, biotin on primary amines (EZ link NHS biotin) in the AlphaScreen assays only); assay: SPR
[4] = target: T3, EphA4 ligand-binding domain (human, …); assay: SPR; kd1
[5] = target: T3, EphA4 ligand-binding domain (human, …); assay: SPR; kd2
[6] = target: T2, human EphA4-Fc (R&D Systems); assay: SPR; remark: listed apart in the source
[7] = target: T2, human EphA4-Fc (R&D Systems); assay: SPR; kd1
[8] = target: T2, human EphA4-Fc (R&D Systems); assay: SPR; kd2
[9] = target: T1, mouse EphA4-Fc (R&D Systems); assay: SPR; remark: listed apart in the source
[10] = target: T1, mouse EphA4-Fc (R&D Systems); assay: SPR; kd1
[11] = target: T1, mouse EphA4-Fc (R&D Systems); assay: SPR; kd2

T2 sequence (P54764 20-547): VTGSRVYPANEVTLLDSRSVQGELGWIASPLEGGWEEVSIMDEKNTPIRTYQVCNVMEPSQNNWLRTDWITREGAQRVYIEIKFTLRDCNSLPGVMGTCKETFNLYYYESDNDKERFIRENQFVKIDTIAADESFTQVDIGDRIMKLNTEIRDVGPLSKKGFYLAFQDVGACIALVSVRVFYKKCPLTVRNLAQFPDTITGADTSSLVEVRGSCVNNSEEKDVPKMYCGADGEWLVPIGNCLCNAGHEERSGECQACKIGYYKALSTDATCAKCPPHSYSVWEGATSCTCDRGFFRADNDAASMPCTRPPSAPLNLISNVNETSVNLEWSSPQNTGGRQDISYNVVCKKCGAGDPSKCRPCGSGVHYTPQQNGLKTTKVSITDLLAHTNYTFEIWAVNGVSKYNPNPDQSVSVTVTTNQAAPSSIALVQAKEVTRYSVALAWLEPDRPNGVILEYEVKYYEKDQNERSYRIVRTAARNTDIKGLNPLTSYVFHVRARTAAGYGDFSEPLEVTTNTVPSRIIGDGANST
T1 sequence (Q03137 20-547): as the sequence (P54764 20-547) above, with P59A, N121S, V124G, R250Q, S251N, T270S, K378R, N406S counted along it
T3 sequence (P54764 22-203): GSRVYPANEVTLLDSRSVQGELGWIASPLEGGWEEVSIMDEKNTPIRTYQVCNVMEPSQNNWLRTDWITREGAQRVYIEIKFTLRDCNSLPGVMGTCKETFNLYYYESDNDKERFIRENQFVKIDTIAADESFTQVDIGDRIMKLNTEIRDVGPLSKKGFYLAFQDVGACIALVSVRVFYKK

| Binder | Kd [1] [nM] | Kd [2] [nM] | Kd [3] [nM] | koff [4] [s⁻¹] | koff [5] [s⁻¹] | koff [6] [s⁻¹] | koff [7] [s⁻¹] | koff [8] [s⁻¹] | koff [9] [s⁻¹] | koff [10] [s⁻¹] | koff [11] [s⁻¹] |
| --- | --- | --- | --- | --- | --- | --- | --- | --- | --- | --- | --- |
| Nb 19 (VHH) VHH: QVQLQESGGGLVQPGGSLRLSCAATGRNFNAYSIAWFRQAPGKEREFVASINWSGSNTYYAVAVKGRFTTSRDNAKNTVYLQMNSLKPEDTAVYYCNAFAAGWGPDYWGQGTQVTVSS | 1140 | 852 | 507 | 0.108 | 0.0289 | 0.091 |  |  | 0.135 |  |  |
| Nb 34 (VHH) VHH: QVQLQESGGGLVQAGGSLRLSCAASGFTFSSYAMSWVRQAPGKGLEWVSGINTGGGSTYYADSVKGRFTISRDNAKNTLYLQMNSLKSEDTAVYYCVPRVGVLEGLTSFGSWGQGTQVTVSS | 26900 | 18000 |  |  |  |  | 0.168 | 0.0121 |  | 0.345 | 0.0226 |
| Nb 57 (VHH, biotin on primary amines (EZ link NHS biotin) in the Eph receptor selectivity AlphaScreen only) VHH: QVQLQESGGGLVQPGGSLRLSCAASGFTFSSYYMYWVRQAPGKGLEWVSTINTGGGSTNYADSVKGRFIISRDNAKNTVYLQMNSLKPEDTAVYYCNAFAAGWGPDYWGQGTQVTVSS | 37.8 | 38.3 | 57.5 | 0.257 | 0.00133 | 0.229 |  |  | 0.288 |  |  |
| Nb 31 (VHH, biotin on primary amines (EZ link NHS biotin) in the Eph receptor selectivity AlphaScreen only) VHH: QVQLQESGGGLVQAGGSLRLSCAASGFASDAYAIGWFRQAPGTKREMIAAVTKAGATNYANPVKGRFTISRDDAKNMVYLQMNNLKPEDSAVYYCNAISPLWDEYDFWGPGTQVTVSS | 258 | 175 | 293 | 0.155 | 0.00676 |  | 0.2 | 0.0105 |  | 0.151 | 0.0115 |

Continued by falling Kd [1], values first:

| Kd [1] [nM] | Kd [2] [nM] | Kd [3] [nM] | koff [4] [s⁻¹] | koff [5] [s⁻¹] | koff [6] [s⁻¹] | koff [7] [s⁻¹] | koff [8] [s⁻¹] | koff [9] [s⁻¹] | koff [10] [s⁻¹] | koff [11] [s⁻¹] | Binder |
| --- | --- | --- | --- | --- | --- | --- | --- | --- | --- | --- | --- |
| 104 | 47.1 | 54.1 | 0.0143 | 0.00255 | 0.0148 |  |  | 0.023 |  |  | Nb 22 (VHH, biotin on primary amines (EZ link NHS biotin) in the Eph receptor selectivity AlphaScreen only) VHH: QVQLQESGGGPVRAGESLRLSCTASGRAFSTYTMGWFRQAPGKERELVAVITPGGNTNYADSVKGRFTISRDDAKNTVYLQMNSLKPVDTAVYYCHVVLAVVGTGNEYDVWGQGTQVTVSS |
| 104 | 64.2 | 87.3 | 0.192 | 0.00062 |  | 0.168 | 0.0022 | 0.114 |  |  | Nb 50 (VHH, biotin on primary amines (EZ link NHS biotin) in the Eph receptor selectivity AlphaScreen only) VHH: QVQLQESGGGLVQAGGSLRLSCAASGRTFNSYAEAWFRQAPGKEREMIAAVTKAGTTNYANPVKGRFTISRDDAKNMVYLQMNNLKPEDSAVYYCNAISPLWDEYDFWGPGTQVTVSS |
| 27.4 | 39.6 | 37 | 0.115 | 0.00018 | 0.0488 |  |  |  |  |  | Nb 60 (VHH, biotin on primary amines (EZ link NHS biotin) in the Eph receptor selectivity AlphaScreen only) VHH: QVQLQESGGGLVQPGGSLRLSCAASGFTFSRYWIYWVRQAPGKQRELVAAITRNGVTNYADSVKGRFTISTDDNKNTVYLQMNSLKSEDTAVYYCNAWGFLLGDIEDYWGQGTQVTVSS |
| 23.6 | 30.1 | 56.6 | 0.0607 | 0.00186 | 0.0291 |  |  | 0.0158 |  |  | Nb 39 (VHH, biotin on primary amines (EZ link NHS biotin) in the Eph receptor selectivity AlphaScreen only) VHH: QVQLQESGGGLVQPGGSLKLSCAASGFTFSTYAMSWVRQAPGKGLEWVSRINSGGGYTWHADSVKGRFTISRDNARNTVYLQMNNLKPEDTAVYYCTNLNTGWRPEYWGQGTQVTVSS |
| 22.8 | 22.6 | 45.7 | 0.0594 | 0.00213 | 0.0156 |  |  | 0.0244 |  |  | Nb 53 (VHH, biotin on primary amines (EZ link NHS biotin) in the Eph receptor selectivity AlphaScreen only) VHH: QVQLQESGGGVVQAGGSLRLSCAASGRAFSSYAMGWFRQAPGTKREMIAAVTRAGTTNYANPVKGRFTISRDDAKNMVYLQMNNLKPEDSAVYYCNAISPLWDEYDFWGPGTQVTVSS |
